This is an account of results in patent US20210061908A1 (IOMX THERAPEUTICS, published 2021).

The target in assay [1] is T1, extracellular domain (ECD) of human IGSF11 (VSIG3), HIS-tagged (human, UniProt Q5DX21 23-241, biotinylated in the ELISA of Example 4 (site not stated)).
T1 construct: also called HIS-IGSF11; IGSF11-HIS; not shown: HIS6 tag
T1 sequence: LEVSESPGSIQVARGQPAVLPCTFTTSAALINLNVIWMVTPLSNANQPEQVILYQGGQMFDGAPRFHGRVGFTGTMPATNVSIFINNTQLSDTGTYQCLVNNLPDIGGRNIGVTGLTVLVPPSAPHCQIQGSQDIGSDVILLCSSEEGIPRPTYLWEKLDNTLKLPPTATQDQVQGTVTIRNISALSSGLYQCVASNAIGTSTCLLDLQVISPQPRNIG
Description: ELISA, coated IGSF11-HIS, IgG1 format; EC50 grade (* >1 nM, ** 0.05-1 nM, *** 0.02-0.05 nM, **** <0.02 nM). A general note: An ELISA detects its analyte on a solid surface through an enzyme-linked reagent.

The target of assay [2] is T2, IGSF11 (VSIG3), construct used in SPR and BLI not stated (UniProt Q5DX21 23-241, limits assumed).
T2 sequence (looked up): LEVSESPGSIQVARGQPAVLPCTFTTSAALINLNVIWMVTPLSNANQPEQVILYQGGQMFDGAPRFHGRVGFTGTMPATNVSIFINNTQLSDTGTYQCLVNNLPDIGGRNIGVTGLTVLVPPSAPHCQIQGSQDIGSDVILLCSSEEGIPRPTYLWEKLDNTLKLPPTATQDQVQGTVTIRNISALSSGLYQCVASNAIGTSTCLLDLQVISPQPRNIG
Kind of assay: SPR (Biacore), IgG1 format; IGSF11 construct not stated. In general terms: SPR reads the build-up and loss of mass on a sensor chip optically.

In assay [3] the target is T3, human IGSF11 (VSIG3) expressed on the surface of cells (human, UniProt Q5DX21 23-431).
T3 construct: one molecule for all cell lines; the cell line is named under assay; also called IGSF11-expressing cells; HEK-OE
T3 sequence: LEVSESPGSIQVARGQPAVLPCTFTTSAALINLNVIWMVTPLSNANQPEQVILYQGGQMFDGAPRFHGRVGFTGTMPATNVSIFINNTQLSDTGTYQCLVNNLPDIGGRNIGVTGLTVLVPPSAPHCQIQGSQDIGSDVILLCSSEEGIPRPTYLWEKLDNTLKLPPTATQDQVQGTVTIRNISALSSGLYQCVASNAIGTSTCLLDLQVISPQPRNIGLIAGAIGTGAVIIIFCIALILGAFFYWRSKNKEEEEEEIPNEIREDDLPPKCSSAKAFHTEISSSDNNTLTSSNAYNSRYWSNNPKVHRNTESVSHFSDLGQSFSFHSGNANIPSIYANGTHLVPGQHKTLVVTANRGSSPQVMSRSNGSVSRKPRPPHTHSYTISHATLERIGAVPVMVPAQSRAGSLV
Kind of assay: FACS, IgG1 format, recombinant HEK cells expressing IGSF11 (HEK-OE). A general note: Flow cytometry measures light scatter and fluorescence of single cells or particles in a stream.

Assay [4] concerns the target CL-11 (C). Description: FACS on CL-11 cells (do not express IGSF11; negative cell line) treated with IGSF11 siRNA (KD).
Assay [5] addresses T3, human IGSF11 (VSIG3) expressed on the …. Description: FACS on M579-A2-luc cells treated with scrambled control siRNA (SC).
Assay [6] shares this target. Description: FACS on M579-A2-luc cells treated with IGSF11 siRNA (KD: target knocked down, specificity control).
For assay [7], the target named is CL-11 (C). Description: FACS on CL-11 cells (do not express IGSF11; negative cell line) treated with scrambled control siRNA (SC).
The target of assay [8] is T3, human IGSF11 (VSIG3) expressed on the …. Description: FACS on DMS 273 cells treated with IGSF11 siRNA (KD: target knocked down, specificity control).
For assay [9] the target is unchanged. Description: FACS on DMS 273 cells treated with scrambled control siRNA (SC).

B1: A-029 (human IgG1 format) (antibody, V domains shown)
VH: QVQLVQSGAEVKKPGSSVKVSCKASGGTFSSYAISWVRQAPGQGLEWMGGIIPIFGTANYAQKFQGRVTITADESTGTAYMELSSLRSEDTAVYYCARSYYYYYGMDVWGQGTTVTVSS
VL: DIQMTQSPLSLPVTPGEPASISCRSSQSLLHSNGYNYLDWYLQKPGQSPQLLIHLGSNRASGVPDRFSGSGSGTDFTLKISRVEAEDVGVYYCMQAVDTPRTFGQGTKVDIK
notes: human IgG1 format
The EC50 is the midpoint of the concentration-response curve. Turning to B1, in assay [1], the EC50 was 0.05 to 1 nM.

B2: A-001 (human IgG1 format) (antibody, V domains shown)
VH: EVQLVESGGGLVKPGGSLRLSCAASGFTFSSYSMNWVRQAPGKGLEWVSSISSSSSYIYYADSVKGRFTISRDNAKNSLYLQMNSLRAEDTAVYYCVRSIIVQALGITSVFDIWGQGTMVTVSS
VL: AIRLTQSPSSLSASVGDRVTISCRASQIISNHLNWYQQKPGKAPKLLIYAASRLQTGVPSRFSGSGSETDYTLTISSLQPEDFATYYCQQSYSNPRTFGHGTKVEIK
notes: human IgG1 format
B2: in assay [1], the EC50 was less than 0.02 nM.

B3: A-023 (human IgG1 format) (antibody, V domains shown)
VH: QVQLVQSGAEVKKPGSSVKVSCKASGGTFSSYAISWVRQAPGQGLEWMGGIIPIFGTANYAQKFQGRVTITADESTSTAYMELSSLRSEDTAVYYCARPKYSSGWFYYYGMDVWGQGTTVTVSS
VL: QSVLTQPPSVSAAPGQKVTISCSGSSSNIGNNYVSWYQQLPGTAPKLLIYDNNKRPSGIPDRFSGSKSGTSATLGITGLQTGDEADYYCGTWDSSLSVVFGGGTKLTVL
notes: human IgG1 format
In assay [1], B3 gave a concentration for a half-maximal effect (EC50) of 0.05 to 1 nM.

B4: A-025 (human IgG1 format) (antibody, V domains shown)
VH: QVQLVQSGAEVKKPGSSVKVSCKASGGTFSSYAISWVRQAPGQGLEWMGGIIPIFGTANYAQKFQGRVTITADESTSTAYMELTSLRSEDTAVYYCARGGWLRQNWFDPWGQGTLVTVSS
VL: SSELTQDPAVSVALGQTVRITCQGDSLRSYYASWYQQKPGQAPVLVIYGKNNRPSGIPDRFSGSSSGNTASLTITGAQAEDEADYYCNSRDSSGNHPRVFGGGTKLTVL
notes: human IgG1 format
For the molecule B4, the EC50 in assay [1] was 0.05 to 1 nM.

B5: A-009 (human IgG1 format) (antibody, V domains shown)
VH: QVQLVQSGAEVKKPGSSVKVSCKASGGTFSSYAISWVRQAPGQGLEWMGGIIPIFGTANYAQKFQGRVTITADESTSTAYMELSSLRSEDTAVYYCARGRGFGELYFDYWGQGTLVTVSS
VL: ETTLTQSPATLSVSPGERATLSCRASQGVRSNIAWYQQKPGQAPRLLIYDSSTRATGIPARFSGSGSGTEFTLTISSLQSEDFAVYSCQQYKNWPRTFGQGTKVEIK
notes: human IgG1 format
The molecule B5 had an EC50 in [1] of 0.05 to 1 nM.

B6: A-004 (human IgG1 format) (antibody, V domains shown)
VH: EVQLVESGGGLVKPGGSLRLSCAASGFTFSSYSMNWVRQAPGKGLEWVSSISSSSSYIYYADSVKGRFTISRDNAKNSLYLQMNSLRAEDTAVYYCARGQLLWFGESALIDAFDIWGQGTMVTVSS
VL: EIVLTQSPSSLSASVGDRVTITCRASQSISSYLNWYQLKPGKAPKLLIYAASILQSGVPSRFSGSGSGTDFTLTISSLQPEDFAAYYCQQSYSTPRTFGQGTKLEIK
notes: human IgG1 format
By Kd is commonly meant the free concentration of one partner at which half of the binding sites on the other are occupied at equilibrium, for simple one-to-one binding. High values mean a looser complex, low ones a tighter complex. B6 came in with an EC50 in assay [1] of less than 0.02 nM. In [2], this molecule registered a dissociation constant Kd of 100 to 250 nM.

B7: A-035 (human IgG1 format) (antibody, V domains shown)
VH: QVQLVQSGAEVKKPGASVKVSCKASGYTFTGYYMHWVRQAPGQGLEWMGWINPNSGNTGYAQKFQGRVTMTRNTSISTAYMELSSLRSEDTAVYYCARGRLERGYWYFDLWGRGTLVTVSS
VL: NFMLTQPHSVSESPGRTVTISCTRSSGSITSNYVQWYQQRPGSAPTILIYEDKERPSEVPDRFSGSIDISSNSASLTISGLKTEDEADYYCQSYGGTSQGVLFGGGTKVTVL
notes: human IgG1 format
With B7, the EC50 in assay [1] is 0.02 to 0.05 nM; in assay [3], more than 50 nM.

B8: A-033 (human IgG1 format) (antibody, V domains shown)
VH: QVQLVQSGAEVKKPGASVKVSCKASGYTFTSYGISWVRQAPGQGLEWMGWISAYNGNTNYAQKLQGRVTMTTDTSTSTAYMELRSLRSDDTAVYYCARDHSIVGATTFDYWGQGTLVTVSS
VL: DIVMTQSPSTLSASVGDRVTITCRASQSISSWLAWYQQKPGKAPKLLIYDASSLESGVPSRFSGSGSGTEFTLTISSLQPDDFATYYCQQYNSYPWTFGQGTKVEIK
notes: human IgG1 format
In turn, B8 yielded an EC50 in [1] of 0.02 to 0.05 nM.

B9: A-010 (human IgG1 format) (antibody, V domains shown)
VH: QVQLVQSGAEVKKPGASVKVSCKASGYTFTSYGISWVRQAPGQGLEWMGWISAYNGNTNYAQKLQGRVTMTTDTSTSTAYMELRSLRSDDTAVYYCARVPAWSGQFDYWGQGTLVTVSS
VL: QSALTQPASVSGSPGQSITISCTGSSSDVGGYNYVSWYQQYPGKAPKLMIYDVRSRPSGVSNRFSGSKSGNTASLTISGLQAEDEADYYCTSYTSSNTLVIFGGGTKVTVL
notes: human IgG1 format
In assay [1], B9 displayed an EC50 of less than 0.02 nM.

B10: A-003 (human IgG1 format) (antibody, V domains shown)
VH: VQLVQSGAEVKKPGSSVKVSCKASGGTFSSYAISWVRQAPGQGLEWMGGIIPIFGTANYAQKFQGRVTITADESTSTAYMELSSLRSEDTAVYYCASPRIQLWAAGGFDYWGQGTLVTVSS
VL: QSALTQPASVSGSPGQSITISCTGTSSDVGGYNLVSWYQQHPGKAPKLMIYDVSNRPSGVSNRFSGSKSGNTASLTISGLQAEDEADYYCSSFTTSTTLVFGGGTKLTVL
notes: human IgG1 format
In assay [1], B10 came in with an EC50 of 0.05 to 1 nM.

B11: A-015 (human IgG1 format) (antibody, V domains shown)
VH: not shown
VL: QPVLTQSPSASASLGASVKLTCTLSSGHTNYAIAWRQQQPGKAPRYLMLLNSDGSHTRGGGIPDRFSGSSSGAERYLTISSLQSEDEADYYCMIWHNNAWVFGGGTKLAVL
notes: human IgG1 format
With B11, the percentage binding in [4] amounted to 2.91%; in [5], 1.17%; in [6] it was 1.3%; in assay [7], 1.95%; in [8], 1.6%; in assay [9] it was 5.97%.

B12: A-026 (human IgG1 format) (antibody, V domains shown)
VH: QVQLQESGPGLVKPSQTLSLTCTVSGGSISSGGYYWSWIRQHPGKGLEWIGYIYYSGSTYYNPSLKSRVTISVDTSKNQFSLKLSSVTAADTAVYYCASWSLGTSNHGWFDPWGQGTLVTVSS
VL: QSVLTQPPSASGTPGQRVTISCSGSSSNIGSNTVNWYQQLPGTAPKLLISDNNNRPSGVPDRFSGSKSGTSASLAITGLQAEDEADYYCQSYDSNLSGWVFGGGTKLTVL
notes: human IgG1 format
For the molecule B12, the percentage binding in [4] amounted to 3.47%; in assay [5], 11.6%; in [6], 2.01%; in [7], 3.6%; in assay [8] it was 3.81%; in assay [9], 64.4%. Besides, the concentration for a half-maximal effect (EC50) in [3] is more than 50 nM.

B13: A-034 (human IgG1 format) (antibody, V domains shown)
VH: QMQLVQSGGGLVKPGGSLRLSCAASGFTFSSYTMNWVRQAPGKGLEWVSSISSIGTYIYYADSVKGRFTISRDNAKNSLYLQMNSLRAEDTAVYYCARVLLSGSYYGYFDSWGQGTLVTVSS
VL: QSVLTQPPSVSGAPGQRVTISCTGSSSNIGAGYDVHWYQQLPGTAPKLFIYGNSNRPSGVPDRFSGSKSGTSASLAITGLQAEDEADYYCQSYDSSLSGYVFGTGTKVTVL
notes: human IgG1 format
Take B13: in assay [1], the EC50 was 0.05 to 1 nM. The Kd in [2] fell in the range of 250 to 500 nM.

B14: A-016 (human IgG1 format) (antibody, V domains shown)
VH: QVQLQESGAEVKKPGASVKVSCKASGYTFTGYYMHWVRQAPGQGLEWMGGIIPIFGTANYAQKFQGRVTITADESTSTAYMELSSLRSEDTAVYYCAGAGMELTRSGAYYYYGMDVWGQGTTVTVSS
VL: QSALTQPASVSGSPGQSITISCTGTSSDIGGYTFVSWYQQHPGKAPKVMIHDVNNRPSGISNRFSGSKSGNTASLTISGLQAEDEADYYCSSVTSTNTYVFGTGTKVTVL
notes: human IgG1 format
As for B14, the EC50 in assay [1] was less than 0.02 nM.

B15: A-008 (human IgG1 format) (antibody, V domains shown)
VH: QLQLQESGPGLVKPSETLSLTCTVSGGSISSSGYYWGWIRQPPGKGLEWIGSIYYSGSTYYNPSLKSRVTISVDTSKNQFSLKLSSVTAADTAVYYCARHRVRFGEFDAFDIWGQGTMVTVSS
VL: QAVLTQPPSVSGAPGERVTLSCTGTSSNVGADFDVHWYQQFPGTAPRLLIFGSDNRPSGVPDRFSGSKSGTSASLAITGLQVEDEADYYCQAYDVRLSGWVFGGGTKLTVL
notes: human IgG1 format
In [1], B15 registered an EC50 of 0.02 to 0.05 nM.
